Experimental data reported in IntAct's records for PubMed 15558030.

B1: Proto-oncogene vav (Homo sapiens), P15498 (parent)
chain: MELWRQCTHWLIQCRVLPPSHRVTWDGAQVCELAQALRDGVLLCQLLNNLLPHAINLREVNLRPQMSQFLCLKNIRTFLSTCCEKFGLKRSELFEAFDLFDVQDFGKVIYTLSALSWTPIAQNRGIMPFPTEEESVGDEDIYSGLSDQIDDTVEEDEDLYDCVENEEAEGDEIYEDLMRSEPVSMPPKMTEYDKRCCCLREIQQTEEKYTDTLGSIQQHFLKPLQRFLKPQDIEIIFINIEDLLRVHTHFLKEMKEALGTPGAANLYQVFIKYKERFLVYGRYCSQVESASKHLDRVAAAREDVQMKLEECSQRANNGRFTLRDLLMVPMQRVLKYHLLLQELVKHTQEAMEKENLRLALDAMRDLAQCVNEVKRDNETLRQITNFQLSIENLDQSLAHYGRPKIDGELKITSVERRSKMDRYAFLLDKALLICKRRGDSYDLKDFVNLHSFQVRDDSSGDRDNKKWSHMFLLIEDQGAQGYELFFKTRELKKKWMEQFEMAISNIYPENATANGHDFQMFSFEETTSCKACQMLLRGTFYQGYRCHRCRASAHKECLGRVPPCGRHGQDFPGTMKKDKLHRRAQDKKRNELGLPKMEVFQEYYGLPPPPGAIGPFLRLNPGDIVELTKAEAEQNWWEGRNTSTNEIGWFPCNRVKPYVHGPPQDLSVHLWYAGPMERAGAESILANRSDGTFLVRQRVKDAAEFAISIKYNVEVKHIKIMTAEGLYRITEKKAFRGLTELVEFYQQNSLKDCFKSLDTTLQFPFKEPEKRTISRPAVGSTKYFGTAKARYDFCARDRSELSLKEGDIIKILNKKGQQGWWRGEIYGRVGWFPANYVEEDYSEYC
partner: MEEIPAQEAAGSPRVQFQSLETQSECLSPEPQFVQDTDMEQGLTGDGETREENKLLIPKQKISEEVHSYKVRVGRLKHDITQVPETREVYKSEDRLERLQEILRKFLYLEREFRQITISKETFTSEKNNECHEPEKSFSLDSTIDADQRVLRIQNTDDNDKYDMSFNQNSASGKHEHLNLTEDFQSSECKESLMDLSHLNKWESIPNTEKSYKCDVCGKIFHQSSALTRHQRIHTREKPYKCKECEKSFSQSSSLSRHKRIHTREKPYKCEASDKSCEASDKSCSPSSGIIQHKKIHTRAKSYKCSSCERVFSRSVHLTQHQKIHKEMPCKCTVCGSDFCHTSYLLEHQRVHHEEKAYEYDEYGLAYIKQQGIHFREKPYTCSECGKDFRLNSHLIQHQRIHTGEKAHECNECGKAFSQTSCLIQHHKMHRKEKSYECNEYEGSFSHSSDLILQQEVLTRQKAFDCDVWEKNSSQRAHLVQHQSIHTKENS

Variants of: B1
Conditions: with zn655_human ZNF655, Q8N720

Row | Variant | effect of a mutation on the interaction
1 | P833L | decreasing interaction
2 | Y836F | decreasing interaction
